This is an account of results in PMC10881392.

Experiment [1] addresses HIV-1 capsid (CA) hexamer CA (Human immunodeficiency virus 1) (UniProt O93182). Particulars: cited from earlier work.
Experiment [2] addresses HIV-1 capsid (CA) unassembled CA (Human immunodeficiency virus 1) (UniProt O93182). The settings on record: cited from earlier work.
The target of experiment [3] is HIV-1 capsid (CA) CA (Human immunodeficiency virus 1) (UniProt O93182). The settings on record: cited from earlier work.
Experiment [4] has as its target unstructured FG domain of Nup98 (residues 1-499), His-tagged, as phase-separated condensates (human) (UniProt P52948).
The target of experiment [5] is CPSF6 (313-327) peptide, Q16630-2. Kind of experiment: FFS. Particulars: parent: est. 1.0, read off a plot.
Experiment [6] concerns the target GFP-Nup42 (full-length) (UniProt O15504). Kind of experiment: FFS. The settings on record: n = 10 scans; parent: est. 1.0; read off a plot.
Experiment [7] addresses GFP-Pom121 (266-1249), transmembrane domain truncated (UniProt Q96HA1). Kind of experiment: FFS. The settings on record: n = 10 scans; parent: est. 1.0; read off a plot.
The target in experiment [8] is GFP-Nup214 (1210-2090), FG-repeat domain (UniProt P35658). Kind of experiment: FFS. Particulars: n = 15 scans; parent: est. 1.0; read off a plot.
For experiment [9], the target named is CypA, GFP fusion (UniProt P62937). Nature of the experiment: FFS. The settings on record: parent: est. 1.0, read off a plot.
The target in experiment [10] is GFP-Nup98 (1-499), FG-repeat domain (UniProt P52948). Nature of the experiment: FFS. The settings on record: n = 10 scans; parent: est. 1.0; read off a plot.
In experiment [11] the target is GFP-Nup62 (full-length) (UniProt P37198). Kind of experiment: FFS. The settings on record: n = 10 scans; parent: est. 1.0; read off a plot.
For experiment [12], the target named is Nup153 (1407-1423) peptide (UniProt P49790). Kind of experiment: FFS. The settings on record: parent: est. 1.0, read off a plot.
The target in experiment [13] is Nup98 fragment 1–119 (13 FGs). Nature of the experiment: FFS. Particulars: n = 10 scans; parent: est. 1.1; read off a plot.
Experiment [14] concerns the target GFP-Nup58 (full-length) (UniProt Q9BVL2). Nature of the experiment: FFS. The settings on record: n = 15 scans; parent: est. 1.0; read off a plot.
Experiment [15] deals with Nup98 fragment 118–345 (13 FGs). Kind of experiment: FFS. Particulars: n = 10 scans; parent: est. 1.1; read off a plot.
Experiment [16] deals with Nup98 fragment 346–499 (13 FGs). Nature of the experiment: FFS. The settings on record: n = 10 scans; parent: est. 2.4; read off a plot.

Chain of Nup153 (1407-1423) peptide (P49790 whole entry, looked up, the tested form may be a part): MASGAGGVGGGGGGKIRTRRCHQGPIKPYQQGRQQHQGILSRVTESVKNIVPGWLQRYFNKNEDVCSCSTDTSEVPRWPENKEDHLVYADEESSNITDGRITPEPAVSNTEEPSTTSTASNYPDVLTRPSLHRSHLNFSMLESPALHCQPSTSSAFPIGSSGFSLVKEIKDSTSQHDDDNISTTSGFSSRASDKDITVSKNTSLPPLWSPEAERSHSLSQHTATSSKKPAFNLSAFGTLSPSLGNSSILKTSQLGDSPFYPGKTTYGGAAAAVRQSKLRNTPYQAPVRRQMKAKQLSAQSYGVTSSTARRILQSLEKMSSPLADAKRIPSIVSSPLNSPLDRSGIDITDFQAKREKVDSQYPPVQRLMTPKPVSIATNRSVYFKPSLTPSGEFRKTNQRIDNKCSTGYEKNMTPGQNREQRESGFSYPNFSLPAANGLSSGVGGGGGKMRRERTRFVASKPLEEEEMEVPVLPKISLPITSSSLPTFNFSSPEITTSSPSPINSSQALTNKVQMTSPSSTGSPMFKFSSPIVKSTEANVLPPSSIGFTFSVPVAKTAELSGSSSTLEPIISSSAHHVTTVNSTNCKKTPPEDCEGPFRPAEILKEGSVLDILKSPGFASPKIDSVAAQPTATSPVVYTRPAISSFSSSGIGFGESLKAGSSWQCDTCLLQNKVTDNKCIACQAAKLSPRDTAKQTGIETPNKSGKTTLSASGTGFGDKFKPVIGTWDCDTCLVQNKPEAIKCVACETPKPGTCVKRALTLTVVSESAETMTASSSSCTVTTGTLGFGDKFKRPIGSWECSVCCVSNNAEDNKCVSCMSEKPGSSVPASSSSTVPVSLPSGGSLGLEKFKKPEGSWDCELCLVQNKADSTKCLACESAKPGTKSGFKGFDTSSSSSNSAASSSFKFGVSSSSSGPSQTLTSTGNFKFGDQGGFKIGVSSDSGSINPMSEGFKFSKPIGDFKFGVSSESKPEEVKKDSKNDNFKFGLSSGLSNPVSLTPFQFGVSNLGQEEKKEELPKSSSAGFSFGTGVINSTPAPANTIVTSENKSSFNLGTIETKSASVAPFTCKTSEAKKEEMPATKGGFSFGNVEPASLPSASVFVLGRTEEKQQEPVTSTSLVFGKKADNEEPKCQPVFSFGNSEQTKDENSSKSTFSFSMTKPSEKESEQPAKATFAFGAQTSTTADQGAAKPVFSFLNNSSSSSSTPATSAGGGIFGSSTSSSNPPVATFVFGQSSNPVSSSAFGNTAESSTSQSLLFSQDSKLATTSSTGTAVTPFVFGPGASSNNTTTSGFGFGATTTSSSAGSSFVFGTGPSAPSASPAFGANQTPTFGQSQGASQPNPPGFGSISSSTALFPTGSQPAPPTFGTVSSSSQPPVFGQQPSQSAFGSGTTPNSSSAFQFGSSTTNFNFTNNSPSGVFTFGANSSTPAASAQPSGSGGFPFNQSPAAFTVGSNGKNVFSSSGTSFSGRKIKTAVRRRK
Chain of CPSF6 (313-327) peptide, Q16630-2 (Q16630 whole entry, looked up, tested part not stated): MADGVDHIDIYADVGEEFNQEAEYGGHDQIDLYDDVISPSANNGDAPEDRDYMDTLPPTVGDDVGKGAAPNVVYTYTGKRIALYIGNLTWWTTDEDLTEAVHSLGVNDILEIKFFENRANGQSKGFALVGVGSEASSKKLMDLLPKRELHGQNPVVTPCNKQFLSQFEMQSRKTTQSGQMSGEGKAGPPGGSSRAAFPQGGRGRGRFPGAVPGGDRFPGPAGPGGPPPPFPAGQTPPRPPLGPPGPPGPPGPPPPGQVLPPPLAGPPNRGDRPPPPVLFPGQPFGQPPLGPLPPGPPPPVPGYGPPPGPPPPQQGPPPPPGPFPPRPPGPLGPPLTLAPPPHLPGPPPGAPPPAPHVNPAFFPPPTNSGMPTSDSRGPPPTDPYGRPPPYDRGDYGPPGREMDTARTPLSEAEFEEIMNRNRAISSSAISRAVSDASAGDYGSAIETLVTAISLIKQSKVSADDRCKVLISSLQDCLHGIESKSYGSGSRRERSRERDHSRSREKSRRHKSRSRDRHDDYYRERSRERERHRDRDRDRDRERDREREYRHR

For CPSF6 313-327 (from UniProt Q16630), the Kd (usually the equilibrium constant for the complex coming apart) in experiment [1] was 50 µM; in experiment [2] it was 700 µM.
On to “HIV-1 capsid (CA) CA (from UniProt O93182)”, for which the Kd in experiment [3] was 40 µM.
Take “capsid-like particles (CLPs; CA A204C cross-linked assemblies labelled with Alexa Fluor 568), wild-type (complex)”: the median penetration depth of unlabelled CLPs into Nup98 condensates, cryo-ET in experiment [4] was 65 nm.
For “capsid-like particles (CLPs; CA A204C cross-linked assemblies labelled with Alexa Fluor 568), wild-type A77V”, the ratio to parent in [5] (n = 10 scans) is 0.15; in experiment [6], 1.2; in [7], 1.7; in experiment [8] it was 1.4; in experiment [9] (n = 10 scans), 1.6; in experiment [10] it was 1.4. Besides, the results for the ratio to parent in experiment [11] and in experiment [12] (n = 10 scans) were 1.7 and 3.9, respectively.
Regarding “capsid-like particles (CLPs; CA A204C cross-linked assemblies labelled with Alexa Fluor 568), wild-type N57D”, the ratio to parent in [5] (n = 10 scans) is 0.03; in [6] it was 0.35; in [14] it was -0.1; in experiment [7] it was -0.02; in experiment [8], 0.2; in experiment [9] (n = 10 scans) it was 1.4. The ratio to parent was 0.35 in [10], -0.1 in experiment [11] and 0.18 in experiment [12] (n = 9 scans). Besides, the results for the response in [13], in experiment [15] and in [16] were 0.19, 0.22 and 0.2, respectively.
“capsid-like particles (CLPs; CA A204C cross-linked assemblies labelled with Alexa Fluor 568), wild-type N74D”: the ratio to parent was determined as 0 in experiment [5] (n = 8 scans); 1.8 in experiment [6]; 1.9 in [7]; 1.8 in experiment [8]; 1.3 in [9] (n = 8 scans); 1.7 in experiment [10]. Besides, the ratio to parent in experiment [12] (n = 10 scans) was 1.4.
